The assay concerns the target recombinant extracellular domain of the human AXL protein (tyrosine protein kinase receptor UFO) (human) (UniProt P30530). Description: BLI. (In general: BLI is a label-free optical method that tracks binding on a fibre tip over time.)

By Kd is commonly meant the free concentration of one partner at which half of the binding sites on the other are occupied at equilibrium, for simple one-to-one binding. Consider “GST-VP1u^(1-227aa) (glutathione S-transferase fused to the B19V VP1 unique region) (from UniProt Q9PZT0 1-227) (domain or fragment)”, for which the Kd worked out at 103 nM.

(Values after article PMC9833669.)
